Reference: the supplement of paper PMC11780869

Test system: Bacillus subtilis
Assay: cleaved RNA product abundance (RNA/gDNA barcode ratio) relative to median wild-type variant (ratio to wild type); higher = more accumulation of the downstream cleavage product
Settings: cleavage site: cggR-gapA (positions -7 to +36 mutated)
Method in brief: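 B. subtilis strains with chromosomally integrated reporter mRNAs (truncated aprE or tetM) holding barcoded, mutagenized RNase Y cleavage-site windows grew in LB at 37°C from OD600 0.0003 to 0.3. Cleaved product abundance is each construct's RNA:gDNA barcode ratio, scaled to the median construct with the unmutated site. It came from sequencing barcodes of gel-selected, reverse-transcribed cleaved RNA and of genomic DNA.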

[1] = experiment (reporter, strain, medium): exp 2b: truncated aprE reporter, strain BJT200
[2] = experiment (reporter, strain, medium): exp 4a: truncated aprE reporter, strain BJT201 with 2% xylose (RNase J1 expressed)

Sequence | cleaved RNA product abundance [1] | cleaved RNA product abundance [2] | cleaved RNA product abundance (experiment (reporter, strain, medium): exp 6: tetM reporter, strain 168)
ACAGACGAAGGAGCCGCAAAGAAGTTATTAATGGATGAATAATCACTCAATATAAATATCTCTCACTTATTTAAA | 0.106 | 0.141 | –
ACAGACGAAGGAGCCGCAAAGAAGTTATTAATGGATGAATAATCACTTAATATAAATATCTCTCACTTATTTAAA | – | 0.194 | –
ACAGACGAAGGAGCCGCAAAGAAGTTATTAATGGATGAATAATCCATCAATATAAATATCTCTCACTTATTTAAA | 0.667 | 1.21 | –
ACAGACGAAGGAGCCGCAAAGAAGTTATTAATGGATGAATAATCCCACAATATAAATATCTCTCACTTATTTAAA | 0.0949 | 0.156 | –
ACAGACGAAGGAGCCGCAAAGAAGTTATTAATGGATGAATAATCCCCCAATATAAATATCTCTCACTTATTTAAA | 0.0983 | 0.122 | –
ACAGACGAAGGAGCCGCAAAGAAGTTATTAATGGATGAATAATCCCGCAATATAAATATCTCTCACTTATTTAAA | – | 0.144 | –
ACAGACGAAGGAGCCGCAAAGAAGTTATTAATGGATGAATAATCCCTAAATATAAATATCTCTCACTTATTTAAA | 0.163 | 0.196 | –
ACAGACGAAGGAGCCGCAAAGAAGTTATTAATGGATGAATAATCCCTCAAAATAAATATCTCTCACTTATTTAAA | 0.11 | 0.151 | –
ACAGACGAAGGAGCCGCAAAGAAGTTATTAATGGATGAATAATCCCTCAACATAAATATCTCTCACTTATTTAAA | – | 0.101 | –
ACAGACGAAGGAGCCGCAAAGAAGTTATTAATGGATGAATAATCCCTCAAGATAAATATCTCTCACTTATTTAAA | 0.0884 | 0.0994 | –
ACAGACGAAGGAGCCGCAAAGAAGTTATTAATGGATGAATAATCCCTCAATAAAAATATCTCTCACTTATTTAAA | 0.136 | 0.108 | –
ACAGACGAAGGAGCCGCAAAGAAGTTATTAATGGATGAATAATCCCTCAATAGAAATATCTCTCACTTATTTAAA | – | 0.0769 | –
ACAGACGAAGGAGCCGCAAAGAAGTTATTAATGGATGAATAATCCCTCAATATAAAAATCTCTCACTTATTTAAA | 0.133 | 0.156 | –
ACAGACGAAGGAGCCGCAAAGAAGTTATTAATGGATGAATAATCCCTCAATATAAACATCTCTCACTTATTTAAA | – | 0.116 | –
ACAGACGAAGGAGCCGCAAAGAAGTTATTAATGGATGAATAATCCCTCAATATAAAGATCTCTCACTTATTTAAA | – | 0.0975 | –
ACAGACGAAGGAGCCGCAAAGAAGTTATTAATGGATGAATAATCCCTCAATATAAATAACTCTCACTTATTTAAA | 0.115 | 0.23 | –
ACAGACGAAGGAGCCGCAAAGAAGTTATTAATGGATGAATAATCCCTCAATATAAATATCTCTCACTTATTTAAA | 0.122 | 0.155 | 0.174
ACAGACGAAGGAGCCGCAAAGAAGTTATTAATGGATGAATAATCCCTCAATATAAATGTCTCTCACTTATTTAAA | 0.107 | 0.194 | –
ACAGACGAAGGAGCCGCAAAGAAGTTATTAATGGATGAATAATCCCTCAATATAAATTTCTCTCACTTATTTAAA | 0.112 | 0.138 | –
ACAGACGAAGGAGCCGCAAAGAAGTTATTAATGGATGAATAATCCCTCAATATAACTATCTCTCACTTATTTAAA | – | 0.072 | –
ACAGACGAAGGAGCCGCAAAGAAGTTATTAATGGATGAATAATCCCTCAATATAATTATCTCTCACTTATTTAAA | 0.13 | 0.108 | –
